Test results reported in patent US20140087995A1 (published 2014).
Numbered stars: 1 amine (or outer) side, 2 acyl side, 3 side chain; on linkers, the order of the positions; unused ones are H or OH. Bridge positions count the residues as written; N and C are the ends. Side chains are listed from the residue outwards. Ends that are not written are not given here. * marks the point of attachment. C20 diacid = O=C(O)CCCCCCCCCCCCCCCCCCC(=O)*; γGlu = O=C(O)[C@H](CCC(=O)[*:2])N[*:1]

T1: human amylin receptor (amylin 3(a) receptor: human calcitonin receptor with RAMP-3) (human, UniProt P30988 25-474; O60896 24-148)
T1 construct: whole, on cells; also called hAmylin-R; hAmylinR
T1 sequence (looked up) 1: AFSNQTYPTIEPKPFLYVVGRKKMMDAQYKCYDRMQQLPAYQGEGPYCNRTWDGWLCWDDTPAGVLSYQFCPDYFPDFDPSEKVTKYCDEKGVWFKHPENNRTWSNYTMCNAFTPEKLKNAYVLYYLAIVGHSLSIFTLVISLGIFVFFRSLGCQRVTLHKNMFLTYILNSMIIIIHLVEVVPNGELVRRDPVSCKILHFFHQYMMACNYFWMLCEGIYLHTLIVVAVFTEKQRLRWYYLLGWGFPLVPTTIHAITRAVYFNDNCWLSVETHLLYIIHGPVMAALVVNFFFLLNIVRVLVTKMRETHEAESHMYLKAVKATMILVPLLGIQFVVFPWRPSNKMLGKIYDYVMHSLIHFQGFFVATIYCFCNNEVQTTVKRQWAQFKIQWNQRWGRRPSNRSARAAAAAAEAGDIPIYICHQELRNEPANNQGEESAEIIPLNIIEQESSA
T1 sequence (looked up) 2: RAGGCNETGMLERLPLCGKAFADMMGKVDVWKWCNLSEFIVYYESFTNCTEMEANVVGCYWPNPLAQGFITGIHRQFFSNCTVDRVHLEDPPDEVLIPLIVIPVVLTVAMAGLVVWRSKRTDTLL

B1: N^ε1-[(4S)-4-carboxy-4-(19-carboxynonadecanoylamino)butanoyl]-[Arg17,Pro21,Pro27,His34]-h-amylin (peptide)
peptide: K([γGlu-C20 diacid])CNTATCATQRLANFLRHSSPNFGAIPSSTNVGHNTY-NH2
modifications: disulfide 2-7; N-terminus assumed
SMILES: CC[C@H](C)[C@H](NC(=O)[C@H](C)NC(=O)CNC(=O)[C@H](Cc1ccccc1)NC(=O)[C@H](CC(N)=O)NC(=O)[C@@H]1CCCN1C(=O)[C@H](CO)NC(=O)[C@H](CO)NC(=O)[C@H](Cc1c[nH]cn1)NC(=O)[C@H](CCCNC(=N)N)NC(=O)[C@H](CC(C)C)NC(=O)[C@H](Cc1ccccc1)NC(=O)[C@H](CC(N)=O)NC(=O)[C@H](C)NC(=O)[C@H](CC(C)C)NC(=O)[C@H](CCCNC(=N)N)NC(=O)[C@H](CCC(N)=O)NC(=O)[C@@H](NC(=O)[C@H](C)NC(=O)[C@@H]1CSSC[C@H](NC(=O)[C@@H](N)CCCCNC(=O)CC[C@H](NC(=O)CCCCCCCCCCCCCCCCCCC(=O)O)C(=O)O)C(=O)N[C@@H](CC(N)=O)C(=O)N[C@@H]([C@@H](C)O)C(=O)N[C@@H](C)C(=O)N[C@@H]([C@@H](C)O)C(=O)N1)[C@@H](C)O)C(=O)N1CCC[C@H]1C(=O)N[C@@H](CO)C(=O)N[C@@H](CO)C(=O)N[C@H](C(=O)N[C@@H](CC(N)=O)C(=O)N[C@H](C(=O)NCC(=O)N[C@@H](Cc1c[nH]cn1)C(=O)N[C@@H](CC(N)=O)C(=O)N[C@H](C(=O)N[C@@H](Cc1ccc(O)cc1)C(N)=O)[C@@H](C)O)C(C)C)[C@@H](C)O
notes: also called 77; compound 77
B2: N^ε1-[(4S)-4-carboxy-4-(19-carboxynonadecanoylamino)butanoyl]-[Glu14,Arg17,Pro21,Pro27,Arg35]-h-amylin (peptide)
peptide: K([γGlu-C20 diacid])CNTATCATQRLAEFLRHSSPNFGAIPSSTNVGSRTY-NH2
modifications: disulfide 2-7; N-terminus assumed
SMILES: CC[C@H](C)[C@H](NC(=O)[C@H](C)NC(=O)CNC(=O)[C@H](Cc1ccccc1)NC(=O)[C@H](CC(N)=O)NC(=O)[C@@H]1CCCN1C(=O)[C@H](CO)NC(=O)[C@H](CO)NC(=O)[C@H](Cc1c[nH]cn1)NC(=O)[C@H](CCCNC(=N)N)NC(=O)[C@H](CC(C)C)NC(=O)[C@H](Cc1ccccc1)NC(=O)[C@H](CCC(=O)O)NC(=O)[C@H](C)NC(=O)[C@H](CC(C)C)NC(=O)[C@H](CCCNC(=N)N)NC(=O)[C@H](CCC(N)=O)NC(=O)[C@@H](NC(=O)[C@H](C)NC(=O)[C@@H]1CSSC[C@H](NC(=O)[C@@H](N)CCCCNC(=O)CC[C@H](NC(=O)CCCCCCCCCCCCCCCCCCC(=O)O)C(=O)O)C(=O)N[C@@H](CC(N)=O)C(=O)N[C@@H]([C@@H](C)O)C(=O)N[C@@H](C)C(=O)N[C@@H]([C@@H](C)O)C(=O)N1)[C@@H](C)O)C(=O)N1CCC[C@H]1C(=O)N[C@@H](CO)C(=O)N[C@@H](CO)C(=O)N[C@H](C(=O)N[C@@H](CC(N)=O)C(=O)N[C@H](C(=O)NCC(=O)N[C@@H](CO)C(=O)N[C@@H](CCCNC(=N)N)C(=O)N[C@H](C(=O)N[C@@H](Cc1ccc(O)cc1)C(N)=O)[C@@H](C)O)C(C)C)[C@@H](C)O
notes: also called 51; compound 51
B3: N^ε1-[(4S)-4-carboxy-4-(19-carboxynonadecanoylamino)butanoyl]-[His14,Arg17,Pro21,Pro27,His34]-h-amylin (peptide)
peptide: K([γGlu-C20 diacid])CNTATCATQRLAHFLRHSSPNFGAIPSSTNVGHNTY-NH2
modifications: disulfide 2-7; N-terminus assumed
SMILES: CC[C@H](C)[C@H](NC(=O)[C@H](C)NC(=O)CNC(=O)[C@H](Cc1ccccc1)NC(=O)[C@H](CC(N)=O)NC(=O)[C@@H]1CCCN1C(=O)[C@H](CO)NC(=O)[C@H](CO)NC(=O)[C@H](Cc1c[nH]cn1)NC(=O)[C@H](CCCNC(=N)N)NC(=O)[C@H](CC(C)C)NC(=O)[C@H](Cc1ccccc1)NC(=O)[C@H](Cc1c[nH]cn1)NC(=O)[C@H](C)NC(=O)[C@H](CC(C)C)NC(=O)[C@H](CCCNC(=N)N)NC(=O)[C@H](CCC(N)=O)NC(=O)[C@@H](NC(=O)[C@H](C)NC(=O)[C@@H]1CSSC[C@H](NC(=O)[C@@H](N)CCCCNC(=O)CC[C@H](NC(=O)CCCCCCCCCCCCCCCCCCC(=O)O)C(=O)O)C(=O)N[C@@H](CC(N)=O)C(=O)N[C@@H]([C@@H](C)O)C(=O)N[C@@H](C)C(=O)N[C@@H]([C@@H](C)O)C(=O)N1)[C@@H](C)O)C(=O)N1CCC[C@H]1C(=O)N[C@@H](CO)C(=O)N[C@@H](CO)C(=O)N[C@H](C(=O)N[C@@H](CC(N)=O)C(=O)N[C@H](C(=O)NCC(=O)N[C@@H](Cc1c[nH]cn1)C(=O)N[C@@H](CC(N)=O)C(=O)N[C@H](C(=O)N[C@@H](Cc1ccc(O)cc1)C(N)=O)[C@@H](C)O)C(C)C)[C@@H](C)O
notes: also called 81; compound 81
B4: N^ε1-[(4S)-4-carboxy-4-(19-carboxynonadecanoylamino)butanoyl]-[Arg17,Pro21,Pro27,Lys35]-h-amylin (peptide)
peptide: K([γGlu-C20 diacid])CNTATCATQRLANFLRHSSPNFGAIPSSTNVGSKTY-NH2
modifications: disulfide 2-7; N-terminus assumed
SMILES: CC[C@H](C)[C@H](NC(=O)[C@H](C)NC(=O)CNC(=O)[C@H](Cc1ccccc1)NC(=O)[C@H](CC(N)=O)NC(=O)[C@@H]1CCCN1C(=O)[C@H](CO)NC(=O)[C@H](CO)NC(=O)[C@H](Cc1c[nH]cn1)NC(=O)[C@H](CCCNC(=N)N)NC(=O)[C@H](CC(C)C)NC(=O)[C@H](Cc1ccccc1)NC(=O)[C@H](CC(N)=O)NC(=O)[C@H](C)NC(=O)[C@H](CC(C)C)NC(=O)[C@H](CCCNC(=N)N)NC(=O)[C@H](CCC(N)=O)NC(=O)[C@@H](NC(=O)[C@H](C)NC(=O)[C@@H]1CSSC[C@H](NC(=O)[C@@H](N)CCCCNC(=O)CC[C@H](NC(=O)CCCCCCCCCCCCCCCCCCC(=O)O)C(=O)O)C(=O)N[C@@H](CC(N)=O)C(=O)N[C@@H]([C@@H](C)O)C(=O)N[C@@H](C)C(=O)N[C@@H]([C@@H](C)O)C(=O)N1)[C@@H](C)O)C(=O)N1CCC[C@H]1C(=O)N[C@@H](CO)C(=O)N[C@@H](CO)C(=O)N[C@H](C(=O)N[C@@H](CC(N)=O)C(=O)N[C@H](C(=O)NCC(=O)N[C@@H](CO)C(=O)N[C@@H](CCCCN)C(=O)N[C@H](C(=O)N[C@@H](Cc1ccc(O)cc1)C(N)=O)[C@@H](C)O)C(C)C)[C@@H](C)O
notes: also called 35; compound 35
B5: N^ε1-[(4S)-4-carboxy-4-(19-carboxynonadecanoylamino)butanoyl]-[His14,Arg17,Pro21,Pro27,Arg34]-h-amylin (peptide)
peptide: K([γGlu-C20 diacid])CNTATCATQRLAHFLRHSSPNFGAIPSSTNVGRNTY-NH2
modifications: disulfide 2-7; N-terminus assumed
SMILES: CC[C@H](C)[C@H](NC(=O)[C@H](C)NC(=O)CNC(=O)[C@H](Cc1ccccc1)NC(=O)[C@H](CC(N)=O)NC(=O)[C@@H]1CCCN1C(=O)[C@H](CO)NC(=O)[C@H](CO)NC(=O)[C@H](Cc1c[nH]cn1)NC(=O)[C@H](CCCNC(=N)N)NC(=O)[C@H](CC(C)C)NC(=O)[C@H](Cc1ccccc1)NC(=O)[C@H](Cc1c[nH]cn1)NC(=O)[C@H](C)NC(=O)[C@H](CC(C)C)NC(=O)[C@H](CCCNC(=N)N)NC(=O)[C@H](CCC(N)=O)NC(=O)[C@@H](NC(=O)[C@H](C)NC(=O)[C@@H]1CSSC[C@H](NC(=O)[C@@H](N)CCCCNC(=O)CC[C@H](NC(=O)CCCCCCCCCCCCCCCCCCC(=O)O)C(=O)O)C(=O)N[C@@H](CC(N)=O)C(=O)N[C@@H]([C@@H](C)O)C(=O)N[C@@H](C)C(=O)N[C@@H]([C@@H](C)O)C(=O)N1)[C@@H](C)O)C(=O)N1CCC[C@H]1C(=O)N[C@@H](CO)C(=O)N[C@@H](CO)C(=O)N[C@H](C(=O)N[C@@H](CC(N)=O)C(=O)N[C@H](C(=O)NCC(=O)N[C@@H](CCCNC(=N)N)C(=O)N[C@@H](CC(N)=O)C(=O)N[C@H](C(=O)N[C@@H](Cc1ccc(O)cc1)C(N)=O)[C@@H](C)O)C(C)C)[C@@H](C)O
notes: also called 85; compound 85
B6: N^ε1-[(4S)-4-carboxy-4-(19-carboxynonadecanoylamino)butanoyl]-[Arg17,Pro21,Pro27,His35]-h-amylin (peptide)
peptide: K([γGlu-C20 diacid])CNTATCATQRLANFLRHSSPNFGAIPSSTNVGSHTY-NH2
modifications: disulfide 2-7; N-terminus assumed
SMILES: CC[C@H](C)[C@H](NC(=O)[C@H](C)NC(=O)CNC(=O)[C@H](Cc1ccccc1)NC(=O)[C@H](CC(N)=O)NC(=O)[C@@H]1CCCN1C(=O)[C@H](CO)NC(=O)[C@H](CO)NC(=O)[C@H](Cc1c[nH]cn1)NC(=O)[C@H](CCCNC(=N)N)NC(=O)[C@H](CC(C)C)NC(=O)[C@H](Cc1ccccc1)NC(=O)[C@H](CC(N)=O)NC(=O)[C@H](C)NC(=O)[C@H](CC(C)C)NC(=O)[C@H](CCCNC(=N)N)NC(=O)[C@H](CCC(N)=O)NC(=O)[C@@H](NC(=O)[C@H](C)NC(=O)[C@@H]1CSSC[C@H](NC(=O)[C@@H](N)CCCCNC(=O)CC[C@H](NC(=O)CCCCCCCCCCCCCCCCCCC(=O)O)C(=O)O)C(=O)N[C@@H](CC(N)=O)C(=O)N[C@@H]([C@@H](C)O)C(=O)N[C@@H](C)C(=O)N[C@@H]([C@@H](C)O)C(=O)N1)[C@@H](C)O)C(=O)N1CCC[C@H]1C(=O)N[C@@H](CO)C(=O)N[C@@H](CO)C(=O)N[C@H](C(=O)N[C@@H](CC(N)=O)C(=O)N[C@H](C(=O)NCC(=O)N[C@@H](CO)C(=O)N[C@@H](Cc1c[nH]cn1)C(=O)N[C@H](C(=O)N[C@@H](Cc1ccc(O)cc1)C(N)=O)[C@@H](C)O)C(C)C)[C@@H](C)O
notes: also called 60; compound 60

target: T1, human amylin receptor (amylin 3(a) …); assay: SPA displacement of 125I-rat amylin, hAmylin 3(a) receptor membranes
Procedure, shortened: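 Cell membranes were prepared by homogenisation in Na-HEPES/EDTA buffer, pH 7.4, and stored at −80° C. They were then coupled to SPA beads at 35 ng/μL final and exposed to compounds in assay buffer containing CaCl2, MgCl₂, OA and Tween20. After 120 min at 25° C, plates were counted and IC₅₀ derived.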

Q: How did the IC50 turn out when B1 was run?
A: 0.428 nM

Q: B2 was tested. Which IC50 did it give?
A: 0.828 nM

Q: How did the IC50 turn out when B3 was run?
A: 0.271 nM

Q: For B4, which IC50 is on record?
A: 0.97 nM

Q: Which IC50 does the source give for B5 here?
A: 0.876 nM

Q: B6 was tested. Which IC50 did it give?
A: 0.695 nM
